Like-named read-outs stand apart in the source and are kept apart here.
Tests used:
[1] = target: recombinant form of hFcRn immobilized on the analytical FcRn column (UniProt P55899); experiment: analytical hFcRn affinity chromatography
[2] = target: ustekinumab-YTE/IL12 (human) (UniProt P29460); experiment: MST
[3] = target: briakinumab-YTE/IL12 (human) (UniProt P29460); experiment: MST
ustekinumab/IL12 (human) = ustekinumab/IL12 (human) (UniProt P29460); experiment: MST
briakinumab (human) [4] = experiment: MST
briakinumab/IL12 (human) [5] = target: briakinumab/IL12 (human) (UniProt P29460); experiment: MST
briakinumab-YTE (human) [6] = experiment: MST
ustekinumab (human) [7] = experiment: MST
ustekinumab-YTE (human) [8] = experiment: MST
[9] = target: ustekinumab-YTE/IL12 (human) (UniProt P29460); experiment: MST; remark: listed apart in the source
[10] = target: briakinumab-YTE/IL12 (human) (UniProt P29460); experiment: MST; remark: listed apart in the source
briakinumab (human) [11] = experiment: MST; remark: listed apart in the source
briakinumab/IL12 (human) [12] = target: briakinumab/IL12 (human) (UniProt P29460); experiment: MST; remark: listed apart in the source
briakinumab-YTE (human) [13] = experiment: MST; remark: listed apart in the source
briakinumab (human) [14] = experiment: SPR
briakinumab-YTE (human) [15] = experiment: SPR
ustekinumab (human) [16] = experiment: SPR
ustekinumab-YTE (human) [17] = experiment: SPR
recombinant human IL-12 = recombinant human IL-12 (Homo sapiens, UniProt P29460;P29459); experiment: ELISA

Chain of recombinant form of hFcRn immobilized on the analytical FcRn column (P55899 24-297, chain 1 of 2): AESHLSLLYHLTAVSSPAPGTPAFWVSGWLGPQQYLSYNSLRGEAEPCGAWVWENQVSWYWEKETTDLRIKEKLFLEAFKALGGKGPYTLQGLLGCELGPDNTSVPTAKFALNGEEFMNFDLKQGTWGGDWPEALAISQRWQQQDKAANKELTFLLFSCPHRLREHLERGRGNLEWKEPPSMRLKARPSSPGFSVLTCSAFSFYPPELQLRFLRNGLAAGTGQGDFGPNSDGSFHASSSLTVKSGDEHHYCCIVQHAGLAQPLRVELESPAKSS
Chain of recombinant form of hFcRn immobilized on the analytical FcRn column (P61769 21-119, chain 2 of 2, further chain): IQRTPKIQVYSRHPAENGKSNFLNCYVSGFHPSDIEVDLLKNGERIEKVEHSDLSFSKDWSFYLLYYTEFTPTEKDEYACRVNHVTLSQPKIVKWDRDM

ustekinumab-YTE (antibody) was tested, and the elution pH from the hFcRn column [1] was 7.9 pH.

“truncated monomeric His-tagged hFcRn (from UniProt P55899 24-365; P61769 21-119) (receptor)” showed a Kd [2] of 78 nM, a Kd [3] of 98 nM and a Kd (ustekinumab/IL12 (human)) of 1000 nM. The Kd (briakinumab (human) [4]) was 599 nM, the Kd (briakinumab/IL12 (human) [5]) was 533 nM and the Kd (briakinumab-YTE (human) [6]) was 79 nM. The Kd (ustekinumab (human) [7]) was 497 nM, the Kd (ustekinumab-YTE (human) [8]) was 100 nM and the Kd [9] was > 20000 nM. For the same molecule, the Kd [10] was > 4000 nM, the Kd (briakinumab (human) [11]) was > 25000 nM and the Kd (briakinumab/IL12 (human) [12]) was > 10000 nM. For the same molecule, the Kd (briakinumab-YTE (human) [13]) was > 20000 nM, the Kd (briakinumab (human) [14]) was 545 nM and the Kd (briakinumab-YTE (human) [15]) was 64 nM. The Kd (ustekinumab (human) [16]) was 653 nM and the Kd (ustekinumab-YTE (human) [17]) was 95.5 nM.

ustekinumab (antibody) showed an elution pH from the hFcRn column [1] of 7.2 pH.

B1: briakinumab (antibody, V domains shown)
VH: QVQLVESGGGVVQPGRSLRLSCAASGFTFSSYGMHWVRQAPGKGLEWVAFIRYDGSNKYYADSVKGRFTISRDNSKNTLYLQMNSLRAEDTAVYYCKTHGSHDNWGQGTMVTVSS
VL: QSVLTQPPSVSGAPGQRVTISCSGSRSNIGSNTVKWYQQLPGTAPKLLIYYNDQRPSGVPDRFSGSKSGTSASLAITGLQAEDEADYYCQSYDRYTHPALLFGTGTKVTVL
B1: binds (recombinant human IL-12).

B2: briakinumab-YTE (antibody, V domains shown)
VH: QVQLVESGGGVVQPGRSLRLSCAASGFTFSSYGMHWVRQAPGKGLEWVAFIRYDGSNKYYADSVKGRFTISRDNSKNTLYLQMNSLRAEDTAVYYCKTHGSHDNWGQGTMVTVSS
VL: QSVLTQPPSVSGAPGQRVTISCSGSRSNIGSNTVKWYQQLPGTAPKLLIYYNDQRPSGVPDRFSGSKSGTSASLAITGLQAEDEADYYCQSYDRYTHPALLFGTGTKVTVL
B2: binds (recombinant human IL-12).

— paper PMC8800109 (iScience, 2022)
